Source: patent US20250320281A1

Tests used:
[1] = target: HIV-1 Env of pseudovirus isolate MGRM-G-001 (HIV-1); assay: cell-based or functional assay
[2] = target: HIV-1 Env of pseudovirus isolate MGRM-G-004 (HIV-1); assay: cell-based or functional assay
[3] = target: HIV-1 Env of pseudovirus isolate MGRM-G-006 (HIV-1); assay: cell-based or functional assay
[4] = target: HIV-1 Env of pseudovirus isolate MGRM-G-009 (HIV-1); assay: cell-based or functional assay
[5] = target: HIV-1 Env of pseudovirus isolate MGRM-G-011 (HIV-1); assay: cell-based or functional assay
[6] = target: HIV-1 Env of pseudovirus isolate MGRM-G-013 (HIV-1); assay: cell-based or functional assay
[7] = target: HIV-1 Env of pseudovirus isolate MGRM-G-014 (HIV-1); assay: cell-based or functional assay
[8] = target: HIV-1 Env of pseudovirus isolate MGRM-G-015 (HIV-1); assay: cell-based or functional assay
[9] = target: HIV-1 Env of pseudovirus isolate MGRM-G-016 (HIV-1); assay: cell-based or functional assay
[10] = target: HIV-1 Env of pseudovirus isolate MGRM-G-017 (HIV-1); assay: cell-based or functional assay
[11] = target: HIV-1 Env of pseudovirus isolate MGRM-G-019 (HIV-1); assay: cell-based or functional assay
[12] = target: HIV-1 Env of pseudovirus isolate MGRM-G-027 (HIV-1); assay: cell-based or functional assay
[13] = target: envelope of aMLV pseudovirus (negative control); assay: cell-based or functional assay
WT JR-FL gp120 (HIV-1) = assay: ELISA, antigen-coated wells
[14] = target: HIV-1 92RW020 Env (pseudovirus) (HIV-1); assay: cell-based or functional assay
[15] = target: HIV-1 92TH021 Env (pseudovirus) (HIV-1); assay: cell-based or functional assay
[16] = target: HIV-1 92UG005 Env (pseudovirus) (HIV-1); assay: cell-based or functional assay
[17] = target: HIV-1 92UG024 Env (pseudovirus) (HIV-1); assay: cell-based or functional assay
[18] = target: HIV-1 93IN905 Env (pseudovirus) (HIV-1); assay: cell-based or functional assay
[19] = target: HIV-1 94UG103 Env (pseudovirus) (HIV-1); assay: cell-based or functional assay
[20] = target: HIV-1 APV6 Env (pseudovirus) (HIV-1); assay: cell-based or functional assay
[21] = target: HIV-1 CMU02 Env (pseudovirus) (HIV-1); assay: cell-based or functional assay
[22] = target: HIV-1 JRCSF Env (pseudovirus) (HIV-1) (UniProt P20871); assay: cell-based or functional assay
[23] = target: HIV-1 MGRM-A-010 Env (pseudovirus) (HIV-1); assay: cell-based or functional assay
[24] = target: HIV-1 MGRM-C-026 Env (pseudovirus) (HIV-1); assay: cell-based or functional assay
[25] = target: HIV-1 MGRM-C-027 Env (pseudovirus) (HIV-1); assay: cell-based or functional assay
[26] = target: HIV-1 MGRM-C-028 Env (pseudovirus) (HIV-1); assay: cell-based or functional assay
[27] = target: HIV-1 MGRM-D-018 Env (pseudovirus) (HIV-1); assay: cell-based or functional assay
[28] = target: HIV-1 NL43 Env (pseudovirus) (HIV-1); assay: cell-based or functional assay

Substance 5136_H01 (PGT-131) (antibody) has an IC50 (µg/mL), pseudovirus neutralization [1] of 0.404 µg/mL, an IC50 (µg/mL), pseudovirus neutralization [2] of over 50 µg/mL and an IC50 (µg/mL), pseudovirus neutralization [3] of over 50 µg/mL. For the same substance, the IC50 (µg/mL), pseudovirus neutralization [4] was over 50 µg/mL, the IC50 (µg/mL), pseudovirus neutralization [5] was over 50 µg/mL and the IC50 (µg/mL), pseudovirus neutralization [6] was over 50 µg/mL. For the same substance, the IC50 (µg/mL), pseudovirus neutralization [7] was 4.31 µg/mL, the IC50 (µg/mL), pseudovirus neutralization [8] was over 50 µg/mL and the IC50 (µg/mL), pseudovirus neutralization [9] was over 50 µg/mL. It also gave an IC50 (µg/mL), pseudovirus neutralization [10] of over 50 µg/mL, an IC50 (µg/mL), pseudovirus neutralization [11] of over 50 µg/mL and an IC50 (µg/mL), pseudovirus neutralization [12] of 2.9 µg/mL. It also gave an IC50 (µg/mL), pseudovirus neutralization [13] of over 50 µg/mL and an EC50 (WT JR-FL gp120 (HIV-1)) of 0.4 µg/mL.
Substance 5147_N06 (PGT-130) (antibody) has a Neutralization by PGT-130, IC50 [14] of 0.014 µg/mL, a Neutralization by PGT-130, IC80 [14] of 0.508 µg/mL and a Neutralization by PGT-130, IC90 [14] of 3.68 µg/mL. For the same substance, the Neutralization by PGT-130, IC95 [14] was over 10 µg/mL, the neutralization IC50 (pseudovirus) [14] was 0.014 µg/mL and the Neutralization by PGT-130, IC50 [15] was 8.2 ng/mL. The Neutralization by PGT-130, IC80 [15] was 0.0261 µg/mL, the Neutralization by PGT-130, IC90 [15] was 0.0513 µg/mL and the Neutralization by PGT-130, IC95 [15] was 0.0963 µg/mL. For the same substance, the neutralization IC50 (pseudovirus) [15] was 8.2 ng/mL, the Neutralization by PGT-130, IC50 [16] was 0.474 µg/mL and the Neutralization by PGT-130, IC80 [16] was over 10 µg/mL. For the same substance, the Neutralization by PGT-130, IC90 [16] was over 10 µg/mL, the Neutralization by PGT-130, IC95 [16] was over 10 µg/mL and the neutralization IC50 (pseudovirus) [16] was 0.474 µg/mL. It also gave a Neutralization by PGT-130, IC50 [17] of over 10 µg/mL, a Neutralization by PGT-130, IC80 [17] of over 10 µg/mL and a Neutralization by PGT-130, IC90 [17] of over 10 µg/mL. It also gave a Neutralization by PGT-130, IC95 [17] of over 10 µg/mL, a neutralization IC50 (pseudovirus) [17] of over 10 µg/mL and a Neutralization by PGT-130, IC50 [18] of 0.0182 µg/mL. The Neutralization by PGT-130, IC80 [18] was 0.272 µg/mL, the Neutralization by PGT-130, IC90 [18] was 1.31 µg/mL and the Neutralization by PGT-130, IC95 [18] was 5.48 µg/mL. It also gave a neutralization IC50 (pseudovirus) [18] of 0.0182 µg/mL, a Neutralization by PGT-130, IC50 [19] of 0.635 µg/mL and a Neutralization by PGT-130, IC80 [19] of over 10 µg/mL. For the same substance, the Neutralization by PGT-130, IC90 [19] was over 10 µg/mL, the Neutralization by PGT-130, IC95 [19] was over 10 µg/mL and the neutralization IC50 (pseudovirus) [19] was 0.635 µg/mL. For the same substance, the Neutralization by PGT-130, IC50 [20] was over 10 µg/mL, the Neutralization by PGT-130, IC80 [20] was over 10 µg/mL and the Neutralization by PGT-130, IC90 [20] was over 10 µg/mL. For the same substance, the Neutralization by PGT-130, IC95 [20] was over 10 µg/mL, the neutralization IC50 (pseudovirus) [20] was over 10 µg/mL and the Neutralization by PGT-130, IC50 [21] was over 10 µg/mL. The Neutralization by PGT-130, IC80 [21] was over 10 µg/mL, the Neutralization by PGT-130, IC90 [21] was over 10 µg/mL and the Neutralization by PGT-130, IC95 [21] was over 10 µg/mL. The neutralization IC50 (pseudovirus) [21] was over 10 µg/mL, the IC50 (µg/mL), pseudovirus neutralization [1] was 0.0198 µg/mL and the IC50 (µg/mL), pseudovirus neutralization [2] was over 50 µg/mL. The IC50 (µg/mL), pseudovirus neutralization [3] was over 50 µg/mL, the IC50 (µg/mL), pseudovirus neutralization [4] was over 50 µg/mL and the IC50 (µg/mL), pseudovirus neutralization [5] was over 50 µg/mL. It also gave an IC50 (µg/mL), pseudovirus neutralization [6] of over 50 µg/mL, an IC50 (µg/mL), pseudovirus neutralization [7] of 2.23 µg/mL and an IC50 (µg/mL), pseudovirus neutralization [8] of over 50 µg/mL. The IC50 (µg/mL), pseudovirus neutralization [9] was over 50 µg/mL, the IC50 (µg/mL), pseudovirus neutralization [10] was over 50 µg/mL and the IC50 (µg/mL), pseudovirus neutralization [11] was 27.9 µg/mL. For the same substance, the IC50 (µg/mL), pseudovirus neutralization [12] was 4.14 µg/mL, the Neutralization by PGT-130, IC50 [22] was 8.9 ng/mL and the Neutralization by PGT-130, IC80 [22] was 0.0317 µg/mL. For the same substance, the Neutralization by PGT-130, IC90 [22] was 0.0669 µg/mL, the Neutralization by PGT-130, IC95 [22] was 0.134 µg/mL and the neutralization IC50 (pseudovirus) [22] was 8.9 ng/mL. For the same substance, the Neutralization by PGT-130, IC50 [23] was 5.4 ng/mL, the Neutralization by PGT-130, IC80 [23] was 0.0251 µg/mL and the Neutralization by PGT-130, IC90 [23] was 0.0643 µg/mL. The Neutralization by PGT-130, IC95 [23] was 0.164 µg/mL, the neutralization IC50 (pseudovirus) [23] was 5.4 ng/mL and the Neutralization by PGT-130, IC50 [24] was 0.0173 µg/mL. For the same substance, the Neutralization by PGT-130, IC80 [24] was 0.263 µg/mL, the Neutralization by PGT-130, IC90 [24] was 1.32 µg/mL and the Neutralization by PGT-130, IC95 [24] was 6.13 µg/mL. It also gave a neutralization IC50 (pseudovirus) [24] of 0.0173 µg/mL, a Neutralization by PGT-130, IC50 [25] of 5.2 ng/mL and a Neutralization by PGT-130, IC80 [25] of 0.0318 µg/mL. It also gave a Neutralization by PGT-130, IC90 [25] of 0.106 µg/mL, a Neutralization by PGT-130, IC95 [25] of 0.464 µg/mL and a neutralization IC50 (pseudovirus) [25] of 5.2 ng/mL. The Neutralization by PGT-130, IC50 [26] was over 10 µg/mL, the Neutralization by PGT-130, IC80 [26] was over 10 µg/mL and the Neutralization by PGT-130, IC90 [26] was over 10 µg/mL. For the same substance, the Neutralization by PGT-130, IC95 [26] was over 10 µg/mL, the neutralization IC50 (pseudovirus) [26] was over 10 µg/mL and the Neutralization by PGT-130, IC50 [27] was 0.0378 µg/mL. The Neutralization by PGT-130, IC80 [27] was 0.289 µg/mL, the Neutralization by PGT-130, IC90 [27] was 2.31 µg/mL and the Neutralization by PGT-130, IC95 [27] was over 10 µg/mL. For the same substance, the neutralization IC50 (pseudovirus) [27] was 0.0378 µg/mL, the Neutralization by PGT-130, IC50 [28] was over 10 µg/mL and the Neutralization by PGT-130, IC80 [28] was over 10 µg/mL. For the same substance, the Neutralization by PGT-130, IC90 [28] was over 10 µg/mL, the Neutralization by PGT-130, IC95 [28] was over 10 µg/mL and the neutralization IC50 (pseudovirus) [28] was over 10 µg/mL. It also gave an IC50 (µg/mL), pseudovirus neutralization [13] of over 50 µg/mL and an EC50 (WT JR-FL gp120 (HIV-1)) of 0.2 µg/mL.
